Assay [1] deals with T1, human CLDN3 (human, UniProt O15551 1-220).
T1 construct: whole, on cells; also called claudin 3
T1 sequence (looked up): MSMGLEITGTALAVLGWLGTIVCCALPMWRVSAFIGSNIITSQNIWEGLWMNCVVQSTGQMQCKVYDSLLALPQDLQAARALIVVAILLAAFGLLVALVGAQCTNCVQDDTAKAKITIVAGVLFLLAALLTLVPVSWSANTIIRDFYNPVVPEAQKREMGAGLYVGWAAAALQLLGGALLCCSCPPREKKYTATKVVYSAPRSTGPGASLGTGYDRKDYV
As to the kind of experiment: binding to cells expressing CLDN3 (FIG. 34 text).

Assay [2] has as its target T2, human CLDN4 (human, UniProt O14493 1-209).
T2 construct: whole, on cells; also called claudin 4
T2 sequence (looked up): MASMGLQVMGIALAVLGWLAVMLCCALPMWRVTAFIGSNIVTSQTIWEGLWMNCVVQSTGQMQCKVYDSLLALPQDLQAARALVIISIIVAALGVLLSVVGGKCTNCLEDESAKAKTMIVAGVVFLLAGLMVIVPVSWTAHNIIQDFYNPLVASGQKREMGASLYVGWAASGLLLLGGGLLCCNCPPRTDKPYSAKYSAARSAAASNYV
As to the kind of experiment: binding to cells expressing CLDN4 (FIG. 34 text).

The target of assay [3] is T3, human CLDN9 (human, UniProt O95484 1-217).
T3 construct: whole, on cells; also called claudin 9
T3 sequence (looked up): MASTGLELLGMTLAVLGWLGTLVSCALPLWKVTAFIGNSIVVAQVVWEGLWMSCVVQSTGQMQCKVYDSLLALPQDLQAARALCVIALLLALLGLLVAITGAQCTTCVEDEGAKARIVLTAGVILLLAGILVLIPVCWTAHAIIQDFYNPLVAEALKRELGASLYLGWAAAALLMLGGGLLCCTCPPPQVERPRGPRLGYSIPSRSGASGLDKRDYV
Briefly: binding to cells expressing CLDN9 (FIG. 33B, FIG. 34 text).

Assay [4] addresses T4, human CLDN6 (human, UniProt P56747 1-220).
T4 sequence (looked up): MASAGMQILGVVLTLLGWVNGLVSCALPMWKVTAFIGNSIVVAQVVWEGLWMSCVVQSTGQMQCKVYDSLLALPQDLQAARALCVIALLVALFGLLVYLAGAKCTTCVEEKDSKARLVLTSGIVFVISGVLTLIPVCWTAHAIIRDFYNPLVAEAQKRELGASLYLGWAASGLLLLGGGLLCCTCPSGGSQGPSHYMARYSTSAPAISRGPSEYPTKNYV
As to the kind of experiment: cell-based or functional assay.

Assay [5] concerns the target T4, human CLDN6. As to the kind of experiment: flow cytometry on a CLDN negative parental cell line transfected with CLDN6, CLDN4, CLDN3 or CLDN9 (FIG. 12D). (In general: A flow cytometer gives signals particle by particle.)
The target of assay [6] is T4, human CLDN6. Briefly: flow cytometry on a CLDN negative parental cell line transfected with CLDN6, CLDN4, CLDN3 or CLDN9 (FIG. 12C).
The target of assay [7] is T4, human CLDN6. As to the kind of experiment: flow cytometry on a CLDN negative parental cell line transfected with CLDN6, CLDN4, CLDN3 or CLDN9 (FIG. 12A).

B1: IMC-16-3 scFv-Fab IgG antibody (bispecific antibody)
heavy: EVQLLESGGGLVQPGGSLRLSCAASGFTFSSYAMNWVRQAPGKGLEWVAGISSSGRYTGYADSVKGRFTISRDNSKNTLYLQMNSLRAEDTAVYYCAKSVGSGVSWSGYVATSLDAWGQGTLVTVSSASTKGPSVFPLAPSSKSTSGGTAALGCLVKDYFPEPVTVSWNSGALTSGVHTFPAVLQSSGLYSLSSVVTVPSSSLGTQTYICNVNHKPSNTKVDKKVEPKSCDKTHTCPPCPAPEAAGGPSVFLFPPKPKDTLMISRTPEVTCVVVDVSHEDPEVKFNWYVDGVEVHNAKTKPREEQYNSTYRVVSVLTVLHQDWLNGKEYKCKVSNKALPAPIEKTISKAKGQPREPQVYTLPPSREEMTKNQVSLWCLVKGFYPSDIAVEWESNGQPENNYKTTPPVLDSDGSFFLYSKLTVDKSRWQQGNVFSCSVMHEALHNHYTQKSLSLSPGK
light: SYELTQPPSVSVSPGQTARITCSAGSGLYGWYQQKPGQAPVLVIYGTNKRPSGIPERFSGSSSGTTVTLTISGVQAEDEADYYCGSADSSTNAGIFGGGTKLTVLGQPKAAPSVTLFPPSSEELQANKATLVCLISDFYPGAVTVAWKADSSPVKAGVETTTPSKQSNNKYAASSYLSLTPEQWKSHRSYSCQVTHEGSTVEKTVAPTECS
scFv: EVQLVESGGGLVQPGGSLRLSCAASGFTFSTYAMNWVRQAPGKGLEWVGRIRSKYNNYATYYADSVKGRFTISRDDSKNTLYLQMNSLRAEDTAVYYCVRHGNFGDSYVSWFAYWGQGTLVTVSSGKPGSGKPGSGKPGSGKPGSQAVVTQEPSLTVSPGGTVTLTCGSSTGAVTTSNYANWVQQKPGKSPRGLIGGTNKRAPGVPARFSGSLLGGKAALTISGAQPEDEADYYCALWYSNHWVFGGGTKLTVLASPKSSDKTHTCPPCPAPEAAGGPSVFLFPPKPKDTLMISRTPEVTCVVVDVSHEDPEVKFNWYVDGVEVHNAKTKPREEQYNSTYRVVSVLTVLHQDWLNGKEYKCKVSNKALPAPIEKTISKAKGQPREPQVYTLPPSREEMTKNQVSLSCAVKGFYPSDIAVEWESNGQPENNYKTTPPVLDSDGSFFLVSKLTVDKSRWQQGNVFSCSVMHEALHNHYTQKSLSLSPGK
notes: also called IMC-16-3 scFv-Fab IgG bispecific antibody
Take B1: the binding result in assay [1], in assay [2] and in assay [3] was “no binding” throughout. The “cytokine activation assay (IL-6, IL-2, TNF-alpha, IL-8) in human PBMC co-cultured with K562 cells” value in assay [4] is ~10 fold more potent than RefMAB #3. Also, the “cytotoxicity assay in OV-90 ovarian cancer cells with human PBMC, two Effector:Target ratios” value in assay [4] is ~10 fold more potent than RefMAB #3.

B2: IMC-21-1 IgG-(scFv)2 antibody (bispecific antibody)
heavy: not shown
light: SYELTQPPSVSVSPGQTARITCSAGSGLYGWYQQKPGQAPVLVIYGTNKRPSGIPERFSGSSSGTTVTLTISGVQAEDEADYYCGSADSSTNAGIFGGGTKLTVLGQPKAAPSVTLFPPSSEELQANKATLVCLISDFYPGAVTVAWKADSSPVKAGVETTTPSKQSNNKYAASSYLSLTPEQWKSHRSYSCQVTHEGSTVEKTVAPTECS
notes: also called MC-21-1 antibody
Regarding B2, the binding result in assay [5] was “binds”.

B3: IMC-16-15 scFv-Fab IgG antibody (bispecific antibody)
heavy: EVQLLESGGGLVQPGGSLRLSCAASGFTFSSYAMNWVRQAPGKGLEWVAGISSSGRYTGYADSVKGRFTISRDNSKNTLYLQMNSLRAEDTAVYYCAKSMGSGVSWSGYVATSIDVWGQGTLVTVSSASTKGPSVFPLAPSSKSTSGGTAALGCLVKDYFPEPVTVSWNSGALTSGVHTFPAVLQSSGLYSLSSVVTVPSSSLGTQTYICNVNHKPSNTKVDKKVEPKSCDKTHTCPPCPAPEAAGGPSVFLFPPKPKDTLMISRTPEVTCVVVDVSHEDPEVKFNWYVDGVEVHNAKTKPREEQYNSTYRVVSVLTVLHQDWLNGKEYKCKVSNKALPAPIEKTISKAKGQPREPQVYTLPPSREEMTKNQVSLWCLVKGFYPSDIAVEWESNGQPENNYKTTPPVLDSDGSFFLYSKLTVDKSRWQQGNVFSCSVMHEALHNHYTQKSLSLSPGK
light: SYELTQPPSVSVSPGQTARITCSAGSGLYGWYQQKPGQAPVLVIYGTNKRPSGIPERFSGSSSGTTVTLTISGVQAEDEADYYCGSADSSTNAGIFGGGTKLTVLGQPKAAPSVTLFPPSSEELQANKATLVCLISDFYPGAVTVAWKADSSPVKAGVETTTPSKQSNNKYAASSYLSLTPEQWKSHRSYSCQVTHEGSTVEKTVAPTECS
scFv: EVQLVESGGGLVQPGGSLRLSCAASGFTFSTYAMNWVRQAPGKGLEWVGRIRSKYNNYATYYADSVKGRFTISRDDSKNTLYLQMNSLRAEDTAVYYCVRHGNFGDSYVSWFAYWGQGTLVTVSSGKPGSGKPGSGKPGSGKPGSQAVVTQEPSLTVSPGGTVTLTCGSSTGAVTTSNYANWVQQKPGKSPRGLIGGTNKRAPGVPARFSGSLLGGKAALTISGAQPEDEADYYCALWYSNHWVFGGGTKLTVLASPKSSDKTHTCPPCPAPEAAGGPSVFLFPPKPKDTLMISRTPEVTCVVVDVSHEDPEVKFNWYVDGVEVHNAKTKPREEQYNSTYRVVSVLTVLHQDWLNGKEYKCKVSNKALPAPIEKTISKAKGQPREPQVYTLPPSREEMTKNQVSLSCAVKGFYPSDIAVEWESNGQPENNYKTTPPVLDSDGSFFLVSKLTVDKSRWQQGNVFSCSVMHEALHNHYTQKSLSLSPGK
On to B3, for which, in assay [6], the binding result is given as “binds”.

B4: IMC-2-7 tandem scFv antibody (bispecific antibody)
scFv: SYELTQPPSVSVSPGQTARITCSAGSGLYGWYQQKPGQAPVLVIYGTNKRPSGIPERFSGSSSGTTVTLTISGVQAEDEADYYCGSADSSTNAGIFGGGTKLTVLGGGGSGGGGSGGGGSEVQLLESGGGLVQPGGSLRLSCAASGFTFSSYAMNWVRQAPGKGLEWVAGISSSGRYTGYADSVKGRFTISRDNSKNTLYLQMNSLRAEDTAVYYCAKSVGSGVSWSGYVATSLDAWGQGTLVTVSSGGGGSEVQLVESGGGLVQPGGSLRLSCAASGFTFSTYAMNWVRQAPGKGLEWVGRIRSKYNNYATYYADSVKGRFTISRDDSKNTLYLQMNSLRAEDTAVYYCVRHGNFGDSYVSWFAYWGQGTLVTVSSGKPGSGKPGSGKPGSGKPGSQAVVTQEPSLTVSPGGTVTLTCGSSTGAVTTSNYANWVQQKPGKSPRGLIGGTNKRAPGVPARFSGSLLGGKAALTISGAQPEDEADYYCALWYSNHWVFGGGTKLTVL
notes: A single-chain tandem scFv (anti-CLDN6 scFv, then anti-CD3 scFv)
In the case of B4, the binding result in assay [7] is “binds”.

The values above are taken from patent US20250145710A1 (INTEGRAL MOLECULAR, published 2025).
